Reference: patent US20140004107A1 (published 2014)

T1: biotinylated human ST2-Fc (human, UniProt Q01638 19-331, biotinylated)
T1 construct: also called ST2-Fc fusion protein; not shown: human antibody Fc domain
T1 sequence: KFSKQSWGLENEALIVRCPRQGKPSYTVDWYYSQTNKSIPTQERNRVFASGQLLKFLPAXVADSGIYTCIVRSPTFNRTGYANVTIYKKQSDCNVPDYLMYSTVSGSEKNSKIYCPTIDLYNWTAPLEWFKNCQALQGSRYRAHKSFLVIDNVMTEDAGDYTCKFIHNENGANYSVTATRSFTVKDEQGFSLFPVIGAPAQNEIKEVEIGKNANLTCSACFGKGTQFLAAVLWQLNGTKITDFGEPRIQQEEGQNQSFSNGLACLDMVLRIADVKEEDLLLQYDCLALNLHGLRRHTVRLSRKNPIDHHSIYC

T2: human ST2 on human primary cells (human, UniProt Q01638 19-556)
T2 sequence: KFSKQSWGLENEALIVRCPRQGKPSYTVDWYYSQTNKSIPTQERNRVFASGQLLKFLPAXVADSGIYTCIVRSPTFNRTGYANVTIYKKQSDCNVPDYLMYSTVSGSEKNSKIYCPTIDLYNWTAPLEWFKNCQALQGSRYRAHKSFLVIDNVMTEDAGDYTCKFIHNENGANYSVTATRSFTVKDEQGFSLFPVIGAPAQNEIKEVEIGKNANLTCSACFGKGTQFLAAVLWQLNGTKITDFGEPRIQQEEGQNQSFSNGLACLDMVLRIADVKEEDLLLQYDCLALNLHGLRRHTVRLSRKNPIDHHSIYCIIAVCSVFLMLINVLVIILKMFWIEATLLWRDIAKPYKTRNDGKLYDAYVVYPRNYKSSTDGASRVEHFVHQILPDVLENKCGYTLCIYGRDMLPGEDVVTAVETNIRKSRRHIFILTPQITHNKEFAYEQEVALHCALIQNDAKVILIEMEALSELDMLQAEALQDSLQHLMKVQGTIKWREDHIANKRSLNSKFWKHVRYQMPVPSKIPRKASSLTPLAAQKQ

T3: soluble human ST2-FLAG His (human, UniProt Q01638 19-322, limits assumed)
T3 construct: also called human ST2-FH; 6xhistidine tagged human ST2; not shown: FLAG and 6x histidine tags
T3 sequence: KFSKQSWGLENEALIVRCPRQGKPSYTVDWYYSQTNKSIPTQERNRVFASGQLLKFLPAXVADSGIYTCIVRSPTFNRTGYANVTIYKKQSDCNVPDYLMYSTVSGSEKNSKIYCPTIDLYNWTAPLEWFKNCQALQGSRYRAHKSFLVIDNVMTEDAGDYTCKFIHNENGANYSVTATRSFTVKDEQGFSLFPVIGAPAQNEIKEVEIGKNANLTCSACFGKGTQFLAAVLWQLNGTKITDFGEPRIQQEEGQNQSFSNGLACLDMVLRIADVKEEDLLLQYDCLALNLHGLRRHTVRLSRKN

T4: cynomolgus monkey ST2 on cynomolgus CD4+ T cells (cynomolgus monkey, UniProt Q01638 19-556 (human entry))
T4 chain: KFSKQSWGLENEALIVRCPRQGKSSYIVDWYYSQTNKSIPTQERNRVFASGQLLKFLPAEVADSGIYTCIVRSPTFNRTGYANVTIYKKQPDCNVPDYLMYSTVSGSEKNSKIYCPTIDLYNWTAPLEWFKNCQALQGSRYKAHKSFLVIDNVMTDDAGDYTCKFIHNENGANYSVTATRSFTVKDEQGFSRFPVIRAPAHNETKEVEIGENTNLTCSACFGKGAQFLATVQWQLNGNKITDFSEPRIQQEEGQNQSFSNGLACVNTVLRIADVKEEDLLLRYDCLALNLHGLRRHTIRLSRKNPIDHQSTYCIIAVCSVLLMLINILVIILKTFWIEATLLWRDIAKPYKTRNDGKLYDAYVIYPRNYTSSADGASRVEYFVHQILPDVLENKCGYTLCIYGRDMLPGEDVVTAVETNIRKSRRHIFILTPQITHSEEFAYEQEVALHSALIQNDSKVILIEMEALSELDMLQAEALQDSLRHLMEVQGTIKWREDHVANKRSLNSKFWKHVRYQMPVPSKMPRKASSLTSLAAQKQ

T5: human ST2 (SPR analyte) (human, UniProt Q01638 19-322)
T5 construct: The ST2 reagent injected in SPR; leader is 1-18; also called hu ST2
T5 sequence: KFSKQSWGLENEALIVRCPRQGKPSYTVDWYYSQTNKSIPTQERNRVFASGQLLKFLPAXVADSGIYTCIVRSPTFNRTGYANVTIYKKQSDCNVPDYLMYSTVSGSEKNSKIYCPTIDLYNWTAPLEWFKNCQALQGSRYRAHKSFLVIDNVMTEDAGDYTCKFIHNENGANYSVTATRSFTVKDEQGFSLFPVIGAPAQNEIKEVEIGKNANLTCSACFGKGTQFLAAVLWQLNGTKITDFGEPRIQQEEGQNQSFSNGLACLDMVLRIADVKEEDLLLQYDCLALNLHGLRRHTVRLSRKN

T6: cynomolgus monkey ST2 (SPR analyte) (cynomolgus monkey, UniProt Q01638 19-322 (human entry))
T6 construct: The cyno ST2 reagent injected in SPR; leader is 1-18; also called cy ST2
T6 chain: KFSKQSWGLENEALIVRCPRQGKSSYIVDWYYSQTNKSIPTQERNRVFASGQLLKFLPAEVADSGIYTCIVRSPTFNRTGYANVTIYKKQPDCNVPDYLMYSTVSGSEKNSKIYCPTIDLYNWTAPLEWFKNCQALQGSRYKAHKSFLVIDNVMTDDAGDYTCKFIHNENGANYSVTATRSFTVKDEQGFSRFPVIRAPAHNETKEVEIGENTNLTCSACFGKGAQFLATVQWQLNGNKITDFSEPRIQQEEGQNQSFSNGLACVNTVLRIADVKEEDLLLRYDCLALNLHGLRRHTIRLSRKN


Experiments:
[1] = target: T1, biotinylated human ST2-Fc; test: AlphaScreen, IL-33 mediated association of biotinylated human ST2-Fc with human AcP-FH, antibody at 12.5 ug/ml
Experimental: In the second assay, antibodies were evaluated for the ability to inhibit the IL-33 mediated association of ST2 with the co-receptor AcP. […] The ST2/AcP AlphaScreen was conducted in 8 ul reactions in a 384 well optiplate (Perkin Elmer). […] After the addition of all assay components the plates were incubated overnight in the dark at room temperature. The next day the plates were read on a 2103 Envision multilable reader (Perkin Elmer) using the same parameters as above for the first assay.

[2] = target: T2, human ST2 on human primary cells; test: cell-based or functional assay
[3] = target: T3, soluble human ST2-FLAG His; test: AlphaScreen, biotinylated human IL-33 with human ST2-FH, antibody at 12.5 ug/ml
[4] = target: T4, cynomolgus monkey ST2 on cynomolgus …; test: cell-based or functional assay
[5] = target: T2, human ST2 on human primary cells; test: cell-based or functional assay; remark: listed apart in the source
human ST2 (SPR analyte) [6] = target: T5, human ST2 (SPR analyte); test: SPR Biacore 4000, kd at pH 5.5 against kd at pH 7.4
Experimental: (§1) The association (5 min) rates at pH 7.4 and dissociation (10 min) rates at pH 5.5 and 7.4 were monitored at a flow rate of 30 uL/min. The reference subtracted data was fit to a 1:1 model in Scrubber.

human ST2 (SPR analyte) [7] = target: T5, human ST2 (SPR analyte); test: SPR Biacore 3000, captured antibody, ST2 analyte, 25 C
[8] = target: T6, cynomolgus monkey ST2 (SPR analyte); test: as above
human ST2 (SPR analyte) [9] = target: T5, human ST2 (SPR analyte); test: SPR Biacore 4000, association at pH 7.4, dissociation at pH 5.5 (estimated kd)
Experimental: as §1

human ST2 (SPR analyte) [10] = target: T5, human ST2 (SPR analyte); test: SPR Biacore 4000, association at pH 7.4, dissociation at pH 7.4 (estimated kd)
Experimental: as §1

human ST2 (SPR analyte) [11] = target: T5, human ST2 (SPR analyte); test: SPR ProteOn XPR-36, captured antibody, ST2 analyte, 25 C
[12] = target: T6, cynomolgus monkey ST2 (SPR analyte); test: as above

Row | % inhib ST2-AcP AS 12.5 ug/ml [1] | IC-50, human eosinophil IL-8 release assay (IL-33 and IL-3 stimulation) [2] | % inhib ST2-IL33 AS 12.5 ug/ml [3] | IC-50, cynomolgus monkey CD4+ T cell IFNγ release assay (IL-33, IL-2 and IL-12p70 stimulation) [4] | IC50 of inhibition of human IL-33-induced IL-5 production from human CD4+ T cells [5] | pH 5.5/pH 7.4 koff fold change (human ST2 (SPR analyte) [6]) | Kd (human ST2 (SPR analyte) [7]) | koff (human ST2 (SPR analyte) [7]) | kon (human ST2 (SPR analyte) [7]) | Kd [8] | koff [8] | kon [8] | koff (human ST2 (SPR analyte) [9]) | koff (human ST2 (SPR analyte) [10]) | Kd (human ST2 (SPR analyte) [11]) | Kd [12] | Binder
1 | 71.2% | 63 pM | 98.5% | 47.1 pM | – | – | – | – | – | – | – | – | – | – | – | – | Ab6 (antibody, human IgG2, kappa, V domains shown, fully human anti-ST2 antibody) VH: EVQLVESGGGLVQPGGSLRLSCAASGFTFSTYDMHWVRQTTGKGLEWVSAIDLAGDTYYPGSVKGRFTISREDAKNSLYLQMNSLRAGDTAVYYCARGGDGYNYDYYGIDVWGQGTTVTVSS VL: DIVMTQSPLSLPVTPGEPASISCRSSQSLLHSDGYHYLDWYLQKPGQSPQLLIYLGSNRASGVPDRFSGSGSGTDFTLNISRVEAEDVGVYYCMQALQTLTFGGGTKVEIKR
2 | 75.7% | 40.7 pM | 98.9% | 40 pM | – | – | – | – | – | – | – | – | – | – | – | – | Ab7 (antibody, human IgG2, kappa, V domains shown, fully human anti-ST2 antibody) VH: EVQLVESGGGLVQPGGSLRLSCAASGFTFSTYDMHWVRQTTGKGLEWVSAIDLAGDTYYPGSVKGRFTISREDAKNSLYLQMNSLRAGDTAVYYCARGGDGYNYDYYGIDVWGQGTTVTVSS VL: DIVMTQSPLSLPVTPGEPASISCRSSQSLLHSDGYHYLDWYLQKPGQSPQLLIYLGSNRASGVPDRFSGSGSGTDFTLNISRVEAEDVGVYYCMQALQTLTFGGGTKVEIKR
3 | – | 73.3 pM | – | 12.9 pM | 64.5 nM | – | – | – | – | – | – | – | – | – | – | – | Ab5 (antibody, human IgG2, kappa, V domains shown) VH: EVQLVESGGGWVQPGGSLRLSCAASGFTFSSYDMYWVRQATGKGLEWVSGIDTVGDTYYPDSVKGRFTISRENAKNSVYLQMNTLRAGDTAVYYCVRGIYGDFYYYGLDVWGHGTTVTVSS VL: DIVMTQSPLSLPVTPGEPASISCRSSQSLLYSDGNNYLDWYLQKPGQSPHLLIYLGSNRASGVPDRFSGSGSGTDFTLKISRVEADDVGVYYCMQALQTLTFGGGTKVEIKR
4 | 68.7% | 50.4 pM | 98.8% | 15.2 pM | – | 2.9 fold | 0.238 nM | 9.5e-05 s⁻¹ | 400000 M⁻¹ s⁻¹ | 0.127 nM | 8.55e-05 s⁻¹ | 674000 M⁻¹ s⁻¹ | 7.91e-05 s⁻¹ | 2.73e-05 s⁻¹ | – | – | Ab3 (antibody, human IgG2, kappa, V domains shown, fully human anti-ST2 antibody) VH: EVQLVESGGGLVQPGGSLRLSCAASGFTFSTYDMHWIRQAPGKNLEWVSAIDLAGDTYYPGSVKGRFTISREDAKNSLYLQMNSLRAGDTAVYYCARGGDGYNYDYYGIDVWGQGTTVTVSS VL: DIVMTQSPLSLPVTPGEPASISCRSSQSLLHSDGYHYLDWYLQKPGQSPQLLIYLGSNRASGVPDRFTGSGSGTDFTLKISRVEAEDVGVYYCMQALQILTFGGGTKVEIKR
5 | 77.8% | 14.1 pM | 98.4% | 4.03 pM | – | 16.9 fold | 0.301 nM | 0.000706 s⁻¹ | 2.35e+06 M⁻¹ s⁻¹ | 0.516 nM | 0.00129 s⁻¹ | 2.5e+06 M⁻¹ s⁻¹ | 0.0107 s⁻¹ | 0.000632 s⁻¹ | – | – | Ab4 (antibody, human IgG2, kappa, V domains shown, fully human anti-ST2 antibody) VH: QVQLVQSGAEVKKPGASVKVSCEVSGFILTELSVNWVRQAPGKGLEWMGGFDPEDGKTIYAQKFQGRVTLTEDTSTDTAYMELSSLRSEDTAVYYCATWWDFHFDFWGQGTLVTVSS VL: DFVMTQTPLSLSVTPGQPASISCKSSQSLLHSNGKTYLYWFLQKPGQPPQLLIYEVSNRFSGVPDRFSGSGSGTDFTLKISRVEAEDVGVYYCMQSIQLPLTFGGGTKVEIKR
6 | 86.9% | 51.5 pM | 98.1% | 15.8 pM | 10.7 nM | 88.1 fold | 0.0777 nM | 0.000111 s⁻¹ | 1.43e+06 M⁻¹ s⁻¹ | 0.117 nM | 0.000197 s⁻¹ | 1.69e+06 M⁻¹ s⁻¹ | 0.0118 s⁻¹ | 0.000134 s⁻¹ | – | – | Ab1 (antibody, human IgG2, kappa, V domains shown, fully human anti-ST2 antibody) VH: QVQLVQSGAEVKKPGASVKVSCKVSGYTLTELSIHWVRQAPGKGLEWMGGFGPEDGETIYAQKFQGRVTMTEDTSTDTAYMELSSLRSEDTAVYYCTTEDSSGLFDYWGQGTLVTVSS VL: not shown
7 | – | – | – | – | – | – | – | – | – | – | – | – | – | – | 0.0097 nM | 0.0102 nM | Ab30 (antibody, human IgG2, kappa, V domains shown, fully human anti-ST2 antibody) VH: QVQLVESGGGVVQPGRSLRLSCTASGFTFSSHGMHWVRQAPGKGLEWVTIIWFDGNNKYYADSVEGRFTISRDNSKNTLFLQMNSLRAEDTAVYYCAREGAEQGFIDLWGRGTLVTVSS VL: DIQMTQSPSSLSASVGDRVTITCQASQDISNYLNWYHQKPGKAPKLLIYDASNLETGVPSRFSGSGSGTDFTFTISGLQPEDIATYYCQQHDNLPLTFGGGTKVEIKR
